Results taken from publication PMC2628407.

Experiments:
[1] = system: FMRP (His-tagged recombinant); assay: EMSA competition; conditions: vs 32P-N19; EMSA or filter binding as in ref 4, with K+ or Na+; buffer, pH and temperature not in the material
[2] = system: FMRP (His-tagged recombinant); assay: filter binding competition; conditions: vs 32P-N19; EMSA or filter binding as in ref 4, with K+ or Na+; buffer, pH and temperature not in the material
FXR1P Isoe = assay: filter binding competition; conditions: self-competition, 32P-Sod1; EMSA or filter binding as in ref 4, with K+ or Na+; buffer, pH and temperature not in the material

Substance | binding signal (% competition at 5 nM) [1] | IC50 [2] [nM] | IC50 (FXR1P Isoe) [nM]
Sod1 full-length mRNA | 65 | 3 | 20
Sod1-5' region | – | 3 | –
